Reference: patent publication JP2006347922A (dated 2006)

Experiments:
Assay in all cases: ELISA, coated protein
HSA(ヒト血清アルブミン) = target: T1, HSA(ヒト血清アルブミン) (ヒト, UniProt P02768 25-609)
T1 construct: also called HSA

Human-hemoglobin = Human-hemoglobin (human, UniProt P69905 2-142; P68871 2-147)
BSA(ウシ血清アルブミン) = target: T2, BSA(ウシ血清アルブミン) (ウシ, UniProt P02769 25-607)
T2 construct: also called BSA

Measured: binding result

T1 sequence (P02768 25-609): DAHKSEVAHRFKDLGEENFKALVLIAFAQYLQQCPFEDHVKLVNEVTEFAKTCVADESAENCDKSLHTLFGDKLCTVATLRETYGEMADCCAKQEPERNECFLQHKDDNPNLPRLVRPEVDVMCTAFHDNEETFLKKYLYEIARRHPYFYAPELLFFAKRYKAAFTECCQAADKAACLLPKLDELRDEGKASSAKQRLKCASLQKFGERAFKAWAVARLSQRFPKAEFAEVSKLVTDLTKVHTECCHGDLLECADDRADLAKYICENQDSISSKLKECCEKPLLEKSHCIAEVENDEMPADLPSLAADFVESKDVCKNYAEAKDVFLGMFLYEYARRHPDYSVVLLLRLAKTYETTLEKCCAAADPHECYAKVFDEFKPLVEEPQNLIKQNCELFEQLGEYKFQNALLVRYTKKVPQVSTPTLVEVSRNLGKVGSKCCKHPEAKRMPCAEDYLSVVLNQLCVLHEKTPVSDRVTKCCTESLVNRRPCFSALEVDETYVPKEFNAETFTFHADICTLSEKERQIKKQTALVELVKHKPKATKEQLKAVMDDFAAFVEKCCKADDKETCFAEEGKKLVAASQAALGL
Chain of Human-hemoglobin (P69905 2-142 limits assumed, chain 1 of 2): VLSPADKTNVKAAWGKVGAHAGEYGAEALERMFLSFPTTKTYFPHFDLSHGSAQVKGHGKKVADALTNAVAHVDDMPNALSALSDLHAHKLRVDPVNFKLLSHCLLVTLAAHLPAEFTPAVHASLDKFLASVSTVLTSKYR
Chain of Human-hemoglobin (P68871 2-147 limits assumed, chain 2 of 2): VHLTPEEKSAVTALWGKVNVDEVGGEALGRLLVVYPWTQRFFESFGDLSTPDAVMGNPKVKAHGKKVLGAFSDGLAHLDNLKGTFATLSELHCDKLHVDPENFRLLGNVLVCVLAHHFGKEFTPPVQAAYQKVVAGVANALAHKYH
T2 sequence (P02769 25-607 limits assumed): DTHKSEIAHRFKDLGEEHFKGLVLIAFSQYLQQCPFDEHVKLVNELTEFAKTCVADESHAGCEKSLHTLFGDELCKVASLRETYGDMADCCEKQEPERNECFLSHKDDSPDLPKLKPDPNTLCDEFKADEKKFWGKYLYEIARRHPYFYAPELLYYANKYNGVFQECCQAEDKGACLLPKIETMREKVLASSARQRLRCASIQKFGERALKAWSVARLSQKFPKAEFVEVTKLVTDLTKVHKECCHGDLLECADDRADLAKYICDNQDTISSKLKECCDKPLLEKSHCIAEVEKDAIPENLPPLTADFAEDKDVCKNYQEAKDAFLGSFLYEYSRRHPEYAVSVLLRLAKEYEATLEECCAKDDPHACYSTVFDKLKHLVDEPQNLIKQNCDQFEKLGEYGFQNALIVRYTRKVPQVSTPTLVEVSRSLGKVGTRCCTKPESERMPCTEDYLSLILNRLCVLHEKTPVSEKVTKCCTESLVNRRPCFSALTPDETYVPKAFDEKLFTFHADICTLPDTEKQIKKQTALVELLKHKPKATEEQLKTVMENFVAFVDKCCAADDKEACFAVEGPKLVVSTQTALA

B1: モノクロナール抗体(抗体酵素)HA1−1 (antibody, V domains shown)
VH: QVQLQQSGPQLVRPGASVKISCKTSGYSFTTYWMHWVKQRPGQGLDWIGMIDPSESETRLNQKFKDKATLTVDKSSSTADMQLSSPTSEDSAVYYCASYEGYWGQGTLVTVS
VL: DIVMSQSPSSLAVSAGEKVTMSCKSSQSLLNSRTRKNYLAWYQQKPGQSPKLLIYWASARESGVPDRFTGSGSGTDFTLTISSVQAEDLAVYYCKQSYTLTWTFGGGTKVEIKR
notes: also called HA1-1; HA1−1抗体
no binding: HSA(ヒト血清アルブミン) | Human-hemoglobin | BSA(ウシ血清アルブミン)

B2: モノクロナール抗体(抗体酵素)HA1−2 (antibody, V domains shown)
VH: QVQLQQSGPHLVRPGTSVRISCKASGYSFTSYWMHWVKQRPGQGLEWIGMIAPSDSETGLNQKFKDKATLTVDKSSSTAYIQLSSPTSEDSAVYYCASYEAYWGQGTLVTVS
VL: DIVMSQSPSSLAVSVGEKVTMSCKSSQSLLNSRARKNYLAWYQQKPGQSPKLLIYWASTRESGVPDRFTGSGSGTDFTLTISSVQAEDLAVYYCKQSYNVTWTFGGGTKLEIKR
notes: also called HA1-2; HA1−2抗体
no binding: HSA(ヒト血清アルブミン) | Human-hemoglobin | BSA(ウシ血清アルブミン)
